Each block holds one binder with its values, some of them ahead of it.
How the values were obtained:
Experiment in all cases: activation reporter or marker
[1] = molecular target: T1, GAD65 113-132 peptide on HLA-DRB1*04:01 (human)
T1 peptide: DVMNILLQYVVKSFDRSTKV

[2] = molecular target: T2, ZNT8 266-285 peptide on HLA-DRB1*04:01 (human)
T2 peptide: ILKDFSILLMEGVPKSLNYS

[3] = molecular target: IGRP 305-324 peptide on HLA-DRB1*04:01 (human)
[4] = molecular target: IGRP 241-260 peptide on HLA-DRB1*04:01 (human)
[5] = molecular target: T3, GAD65 353-372 peptide on HLA-DRB1*04:01 (human)
T3 peptide: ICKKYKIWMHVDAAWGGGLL

[6] = molecular target: T4, ZNT8 1-20 peptide on HLA-DRB1*04:01 (human)
T4 peptide: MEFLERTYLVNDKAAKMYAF

[7] = molecular target: GAD65 265-284 peptide on HLA-DRB1*04:01 (human)
[8] = molecular target: T5, GAD65 105-124 peptide on HLA-DRB1*04:01 (human)
T5 peptide: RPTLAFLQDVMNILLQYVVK

[9] = molecular target: T6, GAD65 553-572 peptide on HLA-DRB1*04:01 (human)
T6 peptide: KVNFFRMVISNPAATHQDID

B1: Clone_262 (TCR)
alpha TRAV12-3 TRAJ29 CDR3: CAMEGGRYNTPLVF
beta TRBV5-6 TRBJ1-1 CDR3: CASSVNRGHNTEAFF
- binding result [1]: recognises

B2: Clone_295 (TCR)
alpha TRAV5 TRAJ22 CDR3: CAESTSGSARQLTF
beta TRBV30 TRBJ2-1 CDR3: CAWMGGYNEQFF
- binding result [2]: recognises

B3: Clone_300 (TCR)
alpha TRAV17 TRAJ22 CDR3: CATDSSSGSARQLTF
beta TRBV5-1 TRBJ2-7 CDR3: CASSLVGGRVDWREQYF
- binding result [3]: recognises

B4: Clone_667 (TCR)
alpha TRAV5 TRAJ7 CDR3: CAERLYGNNRLAF
beta TRBV6-1 TRBJ2-7 CDR3: CASTLLWGGDSYEQYF
- binding result [1]: recognises

B5: Clone_855 (TCR)
alpha TRAV8-2 TRAJ27 CDR3: CVVSVGTNAGKSTF
beta TRBV11-3 TRBJ2-2 CDR3: CASSFSGELFF
- binding result [4]: recognises

B6: Clone_839 (TCR)
alpha TRAV17 TRAJ6 CDR3: CATDEGGSYIPTF
beta TRBV11-3 TRBJ2-2 CDR3: CASSFSGELFF
- binding result [1]: recognises

B7: Clone_2062 (TCR)
alpha TRAV20 TRAJ39 CDR3: CAVQAGNAGNMLTF
beta TRBV7-6 TRBJ2-2 CDR3: CASASGVVGELFF
- binding result [1]: recognises

B8: Clone_2312 (TCR)
alpha TRAV14DV4 TRAJ15 CDR3: CAMREMNQAGTALIF
beta TRBV6-2 TRBJ1-5 CDR3: CASTKGGTHQPQHF
- binding result [5]: recognises

B9: Clone_1826 (TCR)
alpha TRAV13-2 TRAJ20 CDR3: CAENRSDYKLSF
beta TRBV28 TRBJ2-5 CDR3: CASSSQGQGKETQYF
- binding result [6]: recognises

B10: Clone_5 (TCR)
alpha TRAV3 TRAJ13 CDR3: CAVRDSFSGGYQKVTF
beta TRBV12-4 TRBJ2-7 CDR3: CASSPLAGAWSYEQYF
- binding result [3]: recognises

B11: Clone_896 (TCR)
alpha TRAV12-2 TRAJ15 CDR3: CAVNPNQAGTALIF
beta TRBV6-6 TRBJ1-5 CDR3: CASAPQEAQPQHF
- binding result [4]: recognises

Now from value to binder:

- binding result [1]: recognises
B12: Clone_640 (TCR)
alpha TRAV41 TRAJ49 CDR3: CAAAGNQFYF
beta TRBV12-4 TRBJ2-1 CDR3: CASSFTYNEQFF

- binding result [1]: recognises
B13: Clone_271 (TCR)
alpha TRAV20 TRAJ39 CDR3: CAVQAGNAGNMLTF
beta TRBV7-6 TRBJ2-2 CDR3: CASSLGVTGELFF

- binding result [1]: recognises
B14: Clone_904 (TCR)
alpha TRAV9-2 TRAJ52 CDR3: CALSDYSGTSYGKLTF
beta TRBV11-2 TRBJ2-1 CDR3: CASSLIPYNEQFF

- binding result [3]: recognises
B15: Clone_2353 (TCR)
alpha TRAV26-2 TRAJ48 CDR3: CILRDTISNFGNEKLTF
beta TRBV7-9 TRBJ1-2 CDR3: CASSFGSSYYGYTF

- binding result [7]: recognises
B16: Clone_478 (TCR)
alpha TRAV3 TRAJ28 CDR3: CAVRDMRGAGSYQLTF
beta TRBV6-5 TRBJ2-7 CDR3: CASSLGTGTGVYEQYF

- binding result [8]: recognises
B17: Clone_2073 (TCR)
alpha TRAV8-6 TRAJ57 CDR3: CAVKLQGGSEKLVF
beta TRBV2 TRBJ1-5 CDR3: CASKYNRGEQPQHF

- binding result [6]: recognises
B18: Clone_1662 (TCR)
alpha TRAV13-1 TRAJ41 CDR3: CAASGANSGYALNF
beta TRBV30 TRBJ2-5 CDR3: CAWSAQGETQYF

- binding result [9]: recognises
B19: Clone_578 (TCR)
alpha TRAV8-3 TRAJ32 CDR3: CAVGAGYGGATNKLIF
beta TRBV12-3 TRBJ2-7 CDR3: CASSFRGGGNPYEQYF

- binding result [3]: recognises
B20: Clone_2356 (TCR)
alpha TRAV25 TRAJ36 CDR3: CAGQTGANNLFF
beta TRBV4-3 TRBJ1-5 CDR3: CASSQEVGTVPNQPQHF

Reference: publication PMC8663791 (2021)
